Measurements taken from patent US20160272683A1 (Novo Nordisk, published 2016).
Ends that are not written are not given here. * marks the point of attachment. C18 diacid = O=C(O)CCCCCCCCCCCCCCCCC(=O)*

T1: human calcitonin receptor (human, UniProt P30988 25-474)
T1 construct: whole, on cells; also called hCT-R; hCTR
T1 sequence (looked up): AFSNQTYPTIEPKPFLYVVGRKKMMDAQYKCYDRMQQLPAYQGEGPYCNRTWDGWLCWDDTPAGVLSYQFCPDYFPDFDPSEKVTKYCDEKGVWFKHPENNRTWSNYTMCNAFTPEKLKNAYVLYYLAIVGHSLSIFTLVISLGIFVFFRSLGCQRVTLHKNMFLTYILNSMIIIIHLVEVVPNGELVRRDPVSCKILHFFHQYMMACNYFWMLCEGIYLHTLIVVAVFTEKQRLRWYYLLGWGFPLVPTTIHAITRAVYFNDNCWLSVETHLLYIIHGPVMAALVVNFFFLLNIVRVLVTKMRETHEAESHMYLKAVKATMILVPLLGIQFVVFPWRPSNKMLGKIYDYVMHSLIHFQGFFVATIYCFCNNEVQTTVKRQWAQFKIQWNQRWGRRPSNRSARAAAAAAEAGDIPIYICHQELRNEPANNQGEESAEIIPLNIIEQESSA


Biological target: T1, human calcitonin receptor
Experiment: whole-cell competition vs 125I-human calcitonin (Assay VIIa)
Protocol: The binding assay was performed using a BHK tk'ts 13 cell line was stably transfected with the human calcitonin receptor, and a CRE-responsive luciferase reporter gene.
The day before the assay the cells were Seeded into Poly-D-Lysin coated 384W Opaque White, BD BioCoat plates (10000 cells/well) and Incubated overnight at 37° C., 5% CO2, 95% humidity. […] The morning after, the plates were washed three times in HBSS (4° C.), and lyzed in Lysis buffer (0.1 M NaOH), 1% SDS. Scintillation cocktail (MicroScint40®) was added and the plates were shaken at 500 rpm for a short period. The plate was incubated at room temperature in the dark for 1 hour and Read on a TopCounter™ (Packard). The IC₅₀ was calculated using (one site binding competition analysis) GraphPad Prism5 as a measure of receptor affinity.

Row | IC50 [nM] | Binder
1 | 0.431 | EASELSTAALGRLSAELHELATLPRTETGPESP-NH2 (also called Ex. #1) [mimylin]
2 | 1.1 | {C18 diacid}-EASEISTAIIGRLSAELHEIATLPRTETGPESP-NH2 (SMILES CC[C@H](C)[C@H](NC(=O)[C@H](C)NC(=O)[C@@H](NC(=O)[C@H](CO)NC(=O)[C@@H](NC(=O)[C@H](CCC(=O)O)NC(=O)[C@H](CO)NC(=O)[C@H](C)NC(=O)[C@H](CCC(=O)O)NC(=O)CCCCCCCCCCCCCCCCC(=O)O)[C@@H](C)CC)[C@@H](C)O)C(=O)N[C@H](C(=O)NCC(=O)N[C@@H](CCCNC(=N)N)C(=O)N[C@@H](CC(C)C)C(=O)N[C@@H](CO)C(=O)N[C@@H](C)C(=O)N[C@@H](CCC(=O)O)C(=O)N[C@@H](CC(C)C)C(=O)N[C@@H](Cc1c[nH]cn1)C(=O)N[C@@H](CCC(=O)O)C(=O)N[C@H](C(=O)N[C@@H](C)C(=O)N[C@H](C(=O)N[C@@H](CC(C)C)C(=O)N1CCC[C@H]1C(=O)N[C@@H](CCCNC(=N)N)C(=O)N[C@H](C(=O)N[C@@H](CCC(=O)O)C(=O)N[C@H](C(=O)NCC(=O)N1CCC[C@H]1C(=O)N[C@@H](CCC(=O)O)C(=O)N[C@@H](CO)C(=O)N1CCC[C@H]1C(N)=O)[C@@H](C)O)[C@@H](C)O)[C@@H](C)O)[C@@H](C)CC)[C@@H](C)CC, also called Ex. #77) [[N-terminal(C18 diacid), 5I, 9I, 10I, 20I]mimylin]
3 | 0.368 | {C18 diacid}-EASEISTAALGRLSAELHELATLPRTETGPESP-NH2 (SMILES CC[C@H](C)[C@H](NC(=O)[C@H](CCC(=O)O)NC(=O)[C@H](CO)NC(=O)[C@H](C)NC(=O)[C@H](CCC(=O)O)NC(=O)CCCCCCCCCCCCCCCCC(=O)O)C(=O)N[C@@H](CO)C(=O)N[C@H](C(=O)N[C@@H](C)C(=O)N[C@@H](C)C(=O)N[C@@H](CC(C)C)C(=O)NCC(=O)N[C@@H](CCCNC(=N)N)C(=O)N[C@@H](CC(C)C)C(=O)N[C@@H](CO)C(=O)N[C@@H](C)C(=O)N[C@@H](CCC(=O)O)C(=O)N[C@@H](CC(C)C)C(=O)N[C@@H](Cc1c[nH]cn1)C(=O)N[C@@H](CCC(=O)O)C(=O)N[C@@H](CC(C)C)C(=O)N[C@@H](C)C(=O)N[C@H](C(=O)N[C@@H](CC(C)C)C(=O)N1CCC[C@H]1C(=O)N[C@@H](CCCNC(=N)N)C(=O)N[C@H](C(=O)N[C@@H](CCC(=O)O)C(=O)N[C@H](C(=O)NCC(=O)N1CCC[C@H]1C(=O)N[C@@H](CCC(=O)O)C(=O)N[C@@H](CO)C(=O)N1CCC[C@H]1C(N)=O)[C@@H](C)O)[C@@H](C)O)[C@@H](C)O)[C@@H](C)O, also called Ex. #8) [[N-terminal(C18 diacid), 5I]mimylin]
4 | 0.351 | {C18 diacid}-EPSELSTAVLGRLSAELHELATLPRTETGPESP-NH2 (SMILES CC(C)C[C@H](NC(=O)[C@H](CCC(=O)O)NC(=O)[C@H](Cc1c[nH]cn1)NC(=O)[C@H](CC(C)C)NC(=O)[C@H](CCC(=O)O)NC(=O)[C@H](C)NC(=O)[C@H](CO)NC(=O)[C@H](CC(C)C)NC(=O)[C@H](CCCNC(=N)N)NC(=O)CNC(=O)[C@H](CC(C)C)NC(=O)[C@@H](NC(=O)[C@H](C)NC(=O)[C@@H](NC(=O)[C@H](CO)NC(=O)[C@H](CC(C)C)NC(=O)[C@H](CCC(=O)O)NC(=O)[C@H](CO)NC(=O)[C@@H]1CCCN1C(=O)[C@H](CCC(=O)O)NC(=O)CCCCCCCCCCCCCCCCC(=O)O)[C@@H](C)O)C(C)C)C(=O)N[C@@H](C)C(=O)N[C@H](C(=O)N[C@@H](CC(C)C)C(=O)N1CCC[C@H]1C(=O)N[C@@H](CCCNC(=N)N)C(=O)N[C@H](C(=O)N[C@@H](CCC(=O)O)C(=O)N[C@H](C(=O)NCC(=O)N1CCC[C@H]1C(=O)N[C@@H](CCC(=O)O)C(=O)N[C@@H](CO)C(=O)N1CCC[C@H]1C(N)=O)[C@@H](C)O)[C@@H](C)O)[C@@H](C)O, also called Ex. #28) [[N-terminal(C18 diacid), 2P, 9V]mimylin]
5 | 0.478 | {C18 diacid}-EASPLSTAVLGRLSAELHELATLPRTETGPESP-NH2 (SMILES CC(C)C[C@H](NC(=O)[C@H](CCC(=O)O)NC(=O)[C@H](Cc1c[nH]cn1)NC(=O)[C@H](CC(C)C)NC(=O)[C@H](CCC(=O)O)NC(=O)[C@H](C)NC(=O)[C@H](CO)NC(=O)[C@H](CC(C)C)NC(=O)[C@H](CCCNC(=N)N)NC(=O)CNC(=O)[C@H](CC(C)C)NC(=O)[C@@H](NC(=O)[C@H](C)NC(=O)[C@@H](NC(=O)[C@H](CO)NC(=O)[C@H](CC(C)C)NC(=O)[C@@H]1CCCN1C(=O)[C@H](CO)NC(=O)[C@H](C)NC(=O)[C@H](CCC(=O)O)NC(=O)CCCCCCCCCCCCCCCCC(=O)O)[C@@H](C)O)C(C)C)C(=O)N[C@@H](C)C(=O)N[C@H](C(=O)N[C@@H](CC(C)C)C(=O)N1CCC[C@H]1C(=O)N[C@@H](CCCNC(=N)N)C(=O)N[C@H](C(=O)N[C@@H](CCC(=O)O)C(=O)N[C@H](C(=O)NCC(=O)N1CCC[C@H]1C(=O)N[C@@H](CCC(=O)O)C(=O)N[C@@H](CO)C(=O)N1CCC[C@H]1C(N)=O)[C@@H](C)O)[C@@H](C)O)[C@@H](C)O, also called Ex. #30) [[N-terminal(C18 diacid), 4P, 9V]mimylin]
6 | 0.413 | {C18 diacid}-EASEISTAILGRLSAELHELATLPRTETGPESP-NH2 (SMILES CC[C@H](C)[C@H](NC(=O)[C@H](C)NC(=O)[C@@H](NC(=O)[C@H](CO)NC(=O)[C@@H](NC(=O)[C@H](CCC(=O)O)NC(=O)[C@H](CO)NC(=O)[C@H](C)NC(=O)[C@H](CCC(=O)O)NC(=O)CCCCCCCCCCCCCCCCC(=O)O)[C@@H](C)CC)[C@@H](C)O)C(=O)N[C@@H](CC(C)C)C(=O)NCC(=O)N[C@@H](CCCNC(=N)N)C(=O)N[C@@H](CC(C)C)C(=O)N[C@@H](CO)C(=O)N[C@@H](C)C(=O)N[C@@H](CCC(=O)O)C(=O)N[C@@H](CC(C)C)C(=O)N[C@@H](Cc1c[nH]cn1)C(=O)N[C@@H](CCC(=O)O)C(=O)N[C@@H](CC(C)C)C(=O)N[C@@H](C)C(=O)N[C@H](C(=O)N[C@@H](CC(C)C)C(=O)N1CCC[C@H]1C(=O)N[C@@H](CCCNC(=N)N)C(=O)N[C@H](C(=O)N[C@@H](CCC(=O)O)C(=O)N[C@H](C(=O)NCC(=O)N1CCC[C@H]1C(=O)N[C@@H](CCC(=O)O)C(=O)N[C@@H](CO)C(=O)N1CCC[C@H]1C(N)=O)[C@@H](C)O)[C@@H](C)O)[C@@H](C)O, also called Ex. #25) [[N-terminal(C18 diacid), 5I, 9I]mimylin]
7 | 0.481 | EASELSTAALGRLSAELHELATLPRTETGSGSP-NH2 (backbone without side chain; also called Ex. #22bb; 22bb) [[30S, 31G]mimylin]
8 | 0.309 | {C18 diacid}-EAPELSTAVLGRLSAELHELATLPRTETGPESP-NH2 (SMILES CC(C)C[C@H](NC(=O)[C@H](CCC(=O)O)NC(=O)[C@H](Cc1c[nH]cn1)NC(=O)[C@H](CC(C)C)NC(=O)[C@H](CCC(=O)O)NC(=O)[C@H](C)NC(=O)[C@H](CO)NC(=O)[C@H](CC(C)C)NC(=O)[C@H](CCCNC(=N)N)NC(=O)CNC(=O)[C@H](CC(C)C)NC(=O)[C@@H](NC(=O)[C@H](C)NC(=O)[C@@H](NC(=O)[C@H](CO)NC(=O)[C@H](CC(C)C)NC(=O)[C@H](CCC(=O)O)NC(=O)[C@@H]1CCCN1C(=O)[C@H](C)NC(=O)[C@H](CCC(=O)O)NC(=O)CCCCCCCCCCCCCCCCC(=O)O)[C@@H](C)O)C(C)C)C(=O)N[C@@H](C)C(=O)N[C@H](C(=O)N[C@@H](CC(C)C)C(=O)N1CCC[C@H]1C(=O)N[C@@H](CCCNC(=N)N)C(=O)N[C@H](C(=O)N[C@@H](CCC(=O)O)C(=O)N[C@H](C(=O)NCC(=O)N1CCC[C@H]1C(=O)N[C@@H](CCC(=O)O)C(=O)N[C@@H](CO)C(=O)N1CCC[C@H]1C(N)=O)[C@@H](C)O)[C@@H](C)O)[C@@H](C)O, also called Ex. #29) [[N-terminal(C18 diacid), 3P, 9V]mimylin]
9 | 0.577 | {C18 diacid}-EASEHSTAALGRLSAELHELATLPRTETGPESP-NH2 (SMILES CC(C)C[C@H](NC(=O)[C@H](C)NC(=O)[C@H](C)NC(=O)[C@@H](NC(=O)[C@H](CO)NC(=O)[C@H](Cc1c[nH]cn1)NC(=O)[C@H](CCC(=O)O)NC(=O)[C@H](CO)NC(=O)[C@H](C)NC(=O)[C@H](CCC(=O)O)NC(=O)CCCCCCCCCCCCCCCCC(=O)O)[C@@H](C)O)C(=O)NCC(=O)N[C@@H](CCCNC(=N)N)C(=O)N[C@@H](CC(C)C)C(=O)N[C@@H](CO)C(=O)N[C@@H](C)C(=O)N[C@@H](CCC(=O)O)C(=O)N[C@@H](CC(C)C)C(=O)N[C@@H](Cc1c[nH]cn1)C(=O)N[C@@H](CCC(=O)O)C(=O)N[C@@H](CC(C)C)C(=O)N[C@@H](C)C(=O)N[C@H](C(=O)N[C@@H](CC(C)C)C(=O)N1CCC[C@H]1C(=O)N[C@@H](CCCNC(=N)N)C(=O)N[C@H](C(=O)N[C@@H](CCC(=O)O)C(=O)N[C@H](C(=O)NCC(=O)N1CCC[C@H]1C(=O)N[C@@H](CCC(=O)O)C(=O)N[C@@H](CO)C(=O)N1CCC[C@H]1C(N)=O)[C@@H](C)O)[C@@H](C)O)[C@@H](C)O, also called Ex. #17) [[N-terminal(C18 diacid), 5H]mimylin]
